Paper PMC6638984, “Increased association between Epstein-Barr virus EBNA2 from type 2 strains and the transcriptional repressor BS69 restricts EBNA2 activity” (PLoS Pathogens, 2019)

B1: type 2 EBNA2 polypeptide T2 EBNA2_(348-422) [Epstein-Barr virus type 2 (AG876)] / BS69 coiled-coil MYND domain (BS69_(CC-MYND), amino acids 480-602) [human] (parent)
chain 1: SMPQLSPVVSLHQGQGPENSPTPGPSTAGPVCRVTPSATPDISPIHEPESSDSEEPPFLFPSDWYPPTLEPAELD
chain 2: DRMKSDHKRETERVVREALEKLRSEMEEEKRQAVNKAVANMQGEMDRKCKQVKEKCKEEFVEEIKKLATQHKQLISQTKKKQWCYNCEEEAMYHCCWNTSYCSIKCQQEHWHAEHKRTCRRKR

Variants of: B1
Assay: ITC
Conditions: with BS69 coiled-coil MYND domain (BS69_(CC-MYND), amino acids 480-602) [human], two-site model, 29 injections of 1.3 μl 0.3 mM EBNA2 polypeptide and 0.1 mM BS69CC-MYND in the cell
[1] = binding event 1 (KD1), parent: 9 nM
[2] = binding event 2 (KD2), parent: 91 nM

| Variant | Kd [1] [nM] | Kd [2] [nM] |
| --- | --- | --- |
| chain 1 S62D P67A L69A P71A | 8 | 200 |
| chain 1 S62D | 5 | 94 |
